B1: FLAG-GST-SALL4 (wild type) [human] / biotinylated CRBN (wild type) [modified: biotin (added by BirA during cell-free synthesis); biotin (added by BirA during cell-free synthesis)] [human] (parent)
chain 1: MSRRKQAKPQHINSEEDQGEQQPQQQTPEFADAAPAAPAAGELGAPVNHPGNDEVASEDEATVKRLRREETHVCEKCCAEFFSISEFLEHKKNCTKNPPVLIMNDSEGPVPSEDFSGAVLSHQPTSPGSKDCHRENGGSSEDMKEKPDAESVVYLKTETALPPTPQDISYLAKGKVANTNVTLQALRGTKVAVNQRSADALPAPVPGANSIPWVLEQILCLQQQQLQQIQLTEQIRIQVNMWASHALHSSGAGADTLKTLGSHMSQQVSAAVALLSQKAGSQGLSLDALKQAKLPHANIPSATSSLSPGLAPFTLKPDGTRVLPNVMSRLPSALLPQAPGSVLFQSPFSTVALDTSKKGKGKPPNISAVDVKPKDEAALYKHKCKYCSKVFGTDSSLQIHLRSHTGERPFVCSVCGHRFTTKGNLKVHFHRHPQVKANPQLFAEFQDKVAAGNGIPYALSVPDPIDEPSLSLDSKPVLVTTSVGLPQNLSSGTNPKDLTGGSLPGDLQPGPSPESEGGPTLPGVGPNYNSPRAGGFQGSGTPEPGSETLKLQQLVENIDKATTDPNECLICHRVLSCQSSLKMHYRTHTGERPFQCKICGRAFSTKGNLKTHLGVHRTNTSIKTQHSCPICQKKFTNAVMLQQHIRMHMGGQIPNTPLPENPCDFTGSEPMTVGENGSTGAICHDDVIESIDVEEVSSQEAPSSSSKVPTPLPSIHSASPTLGFAMMASLDAPGKVGPAPFNLQRQGSRENGSVESDGLTNDSSSLMGDQEYQSRSPDILETTSFQALSPANSQAESIKSKSPDAGSKAESSENSRTEMEGRSSLPSTFIRAPPTYVKVEVPGTFVGPSTLSPGMTPLLAAQPRRQAKQHGCTRCGKNFSSASALQIHERTHTGEKPFVCNICGRAFTTKGNLKVHYMTHGANNNSARRGRKLAIENTMALLGTDGKRVSEIFPKEILAPSVNVDPVVWNQYTSMLNGGLAVKTNEISVIQSGGVPTLPVSLGATSVVNNATVSKMDGSQSGISADVEKPSATDGVPKHQFPHFLEENKIAVS
chain 2: MAGEGDQQDAAHNMGNHLPLLPAESEEEDEMEVEDQDSKEAKKPNIINFDTSLPTSHTYLGADMEEFHGRTLHDDDSCQVIPVLPQVMMILIPGQTLPLQLFHPQEVSMVRNLIQKDRTFAVLAYSNVQEREAQFGTTAEIYAYREEQDFGIEIVKVKAIGRQRFKVLELRTQSDGIQQAKVQILPECVLPSTMSAVQLESLNKCQIFPSKPVSREDQCSYKWWQKYQKRKFHCANLTSWPRWLYSLYDAETLMDRIKKQLREWDENLKDDSLPSNPIDFSYRVAACLPIDDVLRIQLLKIGSAIQRLRCELDIMNKCTSLCCKQCQETEITTKNEIFSLSLCGPMAAYVNPHGYVHETLTVYKACNLNLIGRPSTEHSWFPGYAWTVAQCKICASHIGWKFTATKKDMSPQKFWGLTRSALLPTIPDTEDEISPDKVILCL
B2: FLAG-GST-IKZF1 (wild type) [not stated] / biotinylated CRBN (wild type) [modified: biotin (added by BirA during cell-free synthesis); biotin (added by BirA during cell-free synthesis)] [human] (parent)
chain 1: MDADEGQDMSQVSGKESPPVSDTPDEGDEPMPIPEDLSTTSGGQQSSKSDRVVASNVKVETQSDEENGRACEMNGEECAEDLRMLDASGEKMNGSHRDQGSSALSGVGGIRLPNGKLKCDICGIICIGPNVLMVHKRSHTGERPFQCNQCGASFTQKGNLLRHIKLHSGEKPFKCHLCNYACRRRDALTGHLRTHSVGKPHKCGYCGRSYKQRSSLEEHKERCHNYLESMGLPGTLYPVIKEETNHSEMAEDLCKIGSERSLVLDRLASNVAKRKSSMPQKFLGDKGLSDTPYDSSASYEKENEMMKSHVMDQAINNAINYLGAESLRPLVQTPPGGSEVVPVISPMYQLHKPLAEGTPRSNHSAQDSAVENLLLLSKAKLVPSEREASPSNSCQDSTDTESNNEEQRSGLIYLTNHIAPHARNGLSLKEEHRAYDLLRAASENSQDALRVVSTSGEQMKVYKCEHCRVLFLDHVMYTIHMGCHGFRDPFECNMCGYHSQDRYEFSSHITRGEHRFHMS
chain 2: B1 chain 2

Variants of: B1
Assay: AlphaScreen (AS-based interaction assay)
Conditions: with biotinylated CRBN (wild type) [modified: biotin (added by BirA during cell-free synthesis), (S)-5HT, last (highest) point of the titration, Log[(S)-5HT (µM)] about 2.3, signal relative to DMSO = 1, read off a plot

response (Relative AS signal)	Variant
4.5	chain 1 V411Q R418S
4.5	chain 1 V411Q

Same assay, conditions: with biotinylated CRBN (wild type) [modified: biotin (added by BirA during cell-free synthesis), (S)-thalidomide, last (highest) point of the titration, Log[(S)-Thal (µM)] about 2.3, signal relative to DMSO = 1, read off a plot

response (Relative AS signal)	Variant
62	chain 1 V411Q R418S
66	chain 1 V411Q

Same assay, conditions: with biotinylated CRBN (wild type) [modified: biotin (added by BirA during cell-free synthesis), 5HP, last (highest) point of the titration, Log[5HP (µM)] = 2, signal relative to DMSO = 1, read off a plot

response (Relative AS signal)	Variant
26	chain 1 V411A
51	chain 1 V411I
14	chain 1 V411L
43	chain 1 V411T

Same assay, conditions: with biotinylated CRBN (wild type) [modified: biotin (added by BirA during cell-free synthesis), (S)-5HT, last (highest) point of the titration, Log[(S)-5HT (µM)] = 2, signal relative to DMSO = 1, read off a plot

response (Relative AS signal)	Variant
29	chain 1 V411A
63	chain 1 V411I
14	chain 1 V411L
47	chain 1 V411T

Same assay, conditions: with biotinylated CRBN (wild type) [modified: biotin (added by BirA during cell-free synthesis), pomalidomide, last (highest) point of the titration, Log[Pom (µM)] = 2, signal relative to DMSO = 1, read off a plot

Variant	response (Relative AS signal)
chain 1 V411A	52
chain 1 V411I	78
chain 1 V411K	8
chain 1 V411H	22

Other lines, results leading:

response (Relative AS signal)	Variant
37	chain 1 V411R
100	chain 1 V411Q

Same assay, conditions: with biotinylated CRBN (wild type) [modified: biotin (added by BirA during cell-free synthesis), (S)-thalidomide, last (highest) point of the titration, Log[(S)-Thal (µM)] = 2, signal relative to DMSO = 1, read off a plot

Variant	response (Relative AS signal)
chain 1 V411I	75
chain 1 V411K	7
chain 1 V411H	20

The next lines start with the values.

response (Relative AS signal)	Variant
14	chain 1 V411R
100	chain 1 V411Q

Variants of: B2
Assay: AlphaScreen (AS-based interaction assay)
Conditions: with biotinylated CRBN (wild type) [modified: biotin (added by BirA during cell-free synthesis), (S)-5HT, last (highest) point of the titration, Log[(S)-5HT (µM)] about 2.3, signal relative to DMSO = 1, read off a plot

response (Relative AS signal)	Variant
25	chain 1 Q146V
26	chain 1 Q146V S153R

Same assay, conditions: with biotinylated CRBN (wild type) [modified: biotin (added by BirA during cell-free synthesis), (S)-thalidomide, last (highest) point of the titration, Log[(S)-Thal (µM)] about 2.3, signal relative to DMSO = 1, read off a plot

response (Relative AS signal)	Variant
28	chain 1 Q146V
14	chain 1 Q146V S153R

— paper PMC7490372, “Structural bases of IMiD selectivity that emerges by 5-hydroxythalidomide” (Nature Communications, 2020)
